From the supplement of paper PMC7125110
± gives the standard error. This sample holds only a part of the variants without activity.

B1: glmS ribozyme (parent)
chain: AUAAAAGCGCCAGAACUACAGAAAUGUAGUUGACGAGGAGGAGGUUUAUCGAAUUUUCGGCGGAUGCCUCCAAA

Key:
Conditions in all cases: with glucosamine-6-phosphate
[1] = variants of: B1; experiment: self-cleavage kobs at 40 uM GlcN6P; higher = faster cleavage; RNA array
In short: (§1)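 The measurements used barcoded ribozyme variants on sequenced MiSeq chips, transcribed in situ by E. coli RNA polymerase and tracked at 37 °C with a hybridised Cy3 probe. Glucosamine-6-phosphate, 40 μM to 10 mM in HEPES/KCl/Mg(OAc)2 buffer, was flowed in while tiles were imaged over ~14 h. Baseline-normalised signals, also normalised to non-cleaving reference variants, gave per-tile medians that were fit to one- or two-exponential decays for kobs. kcat and KM resulted from weighted Michaelis–Menten fits across concentrations.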

[2] = variants of: B1; experiment: self-cleavage kobs at 2500 uM GlcN6P; higher = faster cleavage; RNA array
In short: as §1

[3] = variants of: B1; experiment: self-cleavage kobs at 10000 uM GlcN6P; higher = faster cleavage; RNA array
In short: as §1

[4] = variants of: B1; experiment: self-cleavage kobs at 640 uM GlcN6P; higher = faster cleavage; RNA array
In short: as §1

[5] = variants of: B1; experiment: self-cleavage kobs at 160 uM GlcN6P; higher = faster cleavage; RNA array
In short: as §1

| Variant | self-cleavage kobs at 40 uM GlcN6P [1] | self-cleavage kobs at 2500 uM GlcN6P [2] | self-cleavage kobs at 10000 uM GlcN6P [3] | self-cleavage kobs at 640 uM GlcN6P [4] | self-cleavage kobs at 160 uM GlcN6P [5] |
| --- | --- | --- | --- | --- | --- |
| AUAAAAGCGCCAGAACUACAGAAAUGUAGUUGACGAGGAGGAGGUUUAUCGAAUUGUCGGCAGAUGCCUCCAAA [U56G G62A] | < 1e-05 s⁻¹ | < 1e-05 s⁻¹ | < 1e-05 s⁻¹ |  |  |
| AUAAAGGCGCCAGAACUACAGAAAUGUAGUGGACGAGGAGGCGGUUUGUCGAAUUUUCGGCGGAUGGCUCCAAA [A6G U31G A42C A48G C67G] | < 1e-05 s⁻¹ |  |  |  |  |
| AUAAACGCGCCAGAACUACAGAAAUGUAGUGAACGAGGAGUAGGUUUAUCGAAUUUUCGGCGGAUGCCUCCAAA [A6C U31G G32A G41U] | < 1e-05 s⁻¹ |  |  |  |  |
| AUAAAAGCGCCAGAACUACAGAAAUGUAGUUGACGAGGAGGAGGUCUAUCGAAUUUUCAGCGGAUGCCUCCAAA [U46C G59A] | < 1e-05 s⁻¹ |  | 4.71e-05 ± 1.4e-05 s⁻¹ | < 1e-05 s⁻¹ |  |
| AUAAAAGCGCCGGAACUACAGAAAUGUAGUUGACGAGGAGGAGGUUUAUCGAAUUUUCAGCGGAUGCCUCCAAA [A12G G59A] | < 1e-05 s⁻¹ |  | 2.34e-05 ± 1.1e-05 s⁻¹ |  | < 1e-05 s⁻¹ |
| AUAAAAGCGCCAGAACUACAGAAAUGUAGUUGACGAGGAGGAGGUAUAUCGAAUUUACGGCGGAUGCCUCCAAA [U46A U57A] | < 1e-05 s⁻¹ |  |  |  | < 1e-05 s⁻¹ |
| AUAAAAGCGCCAGAACUACAGAAAUGUAGUUGACGAGGAUGAGGGUUAUCGAAUUUUCGGCGGAUGUCUCCAAA [G40U U45G C67U] | < 1e-05 s⁻¹ |  | 5.49e-05 ± 1.2e-05 s⁻¹ |  | < 1e-05 s⁻¹ |
| AUAAAAGCGCCAAAACUACAGAAAUGUAGUUGACGAGGAGCAGGUUUAUCGAAUUUUCGGAGGAUGCCUCCAAA [G13A G41C C61A] | < 1e-05 s⁻¹ |  |  | < 1e-05 s⁻¹ | < 1e-05 s⁻¹ |
| AUAAAAGCGCCAGAACUACAGAAAUGUAGUUGACGAGGAGGAGGUUUAUCGAAUUUUCGGUCGAUGCCUCCAAA [C61U G62C] | < 1e-05 s⁻¹ | < 1e-05 s⁻¹ | < 1e-05 s⁻¹ | < 1e-05 s⁻¹ |  |
| AUAAAAGCGCCAGAACUACAGAAAUGUACUUGACGAGGAGGAGGUUUAUCGAAUUUUCGACGGAUGCCUCCAAA [G29C G60A] | < 1e-05 s⁻¹ | < 1e-05 s⁻¹ | < 1e-05 s⁻¹ |  | < 1e-05 s⁻¹ |
| AUAAAAGAGCCAGAACUACAGAAAUGUAGUUGUCGAGGAGGAGAUUUAUCGAAUUUUCGGCGGUUGCCUCCAAA [C8A A33U G44A A64U] | < 1e-05 s⁻¹ |  |  | < 1e-05 s⁻¹ |  |
| AUAAAAGCGCCAGAACUACAGAAAUGUAGUUGACGAGAGGGAGGGUUAUGGAAUUUUCGGCGGAUGCCUCCAAA [G38A A39G U45G C50G] | < 1e-05 s⁻¹ | < 1e-05 s⁻¹ |  |  |  |
| AUAAAAGCGCAAGAACUACAGAAAUGUAGUUGACGAGGAGGAGAUUUAUCGAAUUUUCGGCGGAUGCCUCCAAA [C11A G44A] | < 1e-05 s⁻¹ | < 1e-05 s⁻¹ | < 1e-05 s⁻¹ | < 1e-05 s⁻¹ |  |
| AUAAAAGCGCCAGAACUACAGAAAUGUAGUUGAAGAGGAGGAGGUUUAUCGAAUUUCCGGCGGAUGCCUCCAAA [C34A U57C] | < 1e-05 s⁻¹ | < 1e-05 s⁻¹ | < 1e-05 s⁻¹ |  | < 1e-05 s⁻¹ |
| AUAAAAGGGCCAGAACUACAGAAAUGUAGUUGACGAGGAGGAGGUUUAUCGAAUUUUCGGCGGAUGCCUCCAAA [C8G] | < 1e-05 s⁻¹ | < 1e-05 s⁻¹ | < 1e-05 s⁻¹ | < 1e-05 s⁻¹ | < 1e-05 s⁻¹ |
| AUAAAAGCGCCAGAACUACAGAAAUGUAGUUGACGAGGAGGAGGUUUAUCGAAACUUCGGCGGAUGCCUCCAAA [U54A U55C] | 0.00104 ± 0.00016 s⁻¹ | 0.0235 ± 0.0076 s⁻¹ | 0.0628 ± 0.022 s⁻¹ | 0.00479 ± 0.001 s⁻¹ | 0.00215 ± 0.00046 s⁻¹ |
| AUAAAAGCGCCAGAACUACAGAAAUGUAGUUCACGGGGAGGAGGUUUAUCGAAUUUUCGGCGGAUGCCUCCAAA [G32C A36G] | < 1e-05 s⁻¹ | < 1e-05 s⁻¹ | < 1e-05 s⁻¹ | < 1e-05 s⁻¹ | < 1e-05 s⁻¹ |
| AUAAAAGGGCCAGAUCUACAGAAAUGUAGUUGACGAGGAGGAGGUUUAUCGAAUUUUCGGCGGAUGCCUCCAAA [C8G A15U] | < 1e-05 s⁻¹ | < 1e-05 s⁻¹ | < 1e-05 s⁻¹ | < 1e-05 s⁻¹ | < 1e-05 s⁻¹ |
| AUAAAAGCGCCAGAACUACAGAAAUGUAAUUGACGAGGAGGAGGUUUAUCGAAUGUUCGCCGGAUGCCUCCAAA [G29A U55G G60C] | < 1e-05 s⁻¹ |  |  |  |  |
| AUAAAAGCGCCAGUACUACAGAAAUGUAGUUGACGAGGAGGAGGUUUAUGGAAUUUUUGGCGGAUGCCUCCAAA [A14U C50G C58U] | 0.000443 ± 0.00014 s⁻¹ |  | 3.69e-05 ± 1.8e-05 s⁻¹ |  |  |
| AUAAAAACGCCAGAACUACAGAAAUGUAGUUGACGAGGAGGAGCUUUUUCGAAUUUUCGGCGGAUGCUUCCAAA [G7A G44C A48U C68U] | < 1e-05 s⁻¹ |  | < 1e-05 s⁻¹ |  |  |
| AUAAAAGCGCCAGAACUACAGAAAUGUAGUUGACGAGGAGGAGGUUUAUCGAAUAUUCGGCGGAUGCCUCAAAA [U55A C71A] | 0.000472 ± 6.9e-05 s⁻¹ |  | 0.0132 ± 0.0032 s⁻¹ | 0.00299 ± 0.00056 s⁻¹ | 0.000925 ± 0.00023 s⁻¹ |
| AUAAAAGCGCCAGAAGUACAGAAAUGUAGGUGACGAGGAGGAGGUUUAUGGAAUUUUCGGCGGAUGCCUCCAAA [C16G U30G C50G] | 0.00013 ± 4.8e-05 s⁻¹ | 0.000324 ± 5e-05 s⁻¹ | 7.3e-05 ± 1.9e-05 s⁻¹ | 6.59e-05 ± 3.2e-05 s⁻¹ |  |
| AUAAAAGGGCCAGAACUACAGAAAUGUAGUUGACGAGGAGGAGGUUUGUCGAAUUUUGGGCGGAUGCCUCCAAA [C8G A48G C58G] | < 1e-05 s⁻¹ |  | < 1e-05 s⁻¹ | < 1e-05 s⁻¹ | < 1e-05 s⁻¹ |
